Assay results reported in US20100120894A1 (UNIVERSITY OF MASSACHUSETTS, published 2010).

Experiments:
[1] = biological target: T1, ASC-YFP stably expressed in HEK293 cells (UniProt Q9ULZ3 1-195); test: confocal microscopy, HEK293-ASC-YFP cells transfected with PYD-CFP
T1 construct: also called YFP-ASC; HEK293-ASC-YFP; not shown: YFP
Protocol: Fluorescence intensities of the green (YFP-ASC) and red (PYD-CFP) channels were quantified along selected lines (white lines) and the percentage of ASC-YFP speckles per transfected cells assessed (panel b). c) 293T cells were transfected with expression plasmids encoding HAtagged ASC and CFP-tagged constructs as in panel a. The protein levels of the CFP-tagged PYD proteins in cell lysates were assessed by immunoblot analysis (INPUT, upper panels). Cell extracts were immunoprecipitated (IP) with anti-HA antibodies and immunoblotted (WB) with anti-HA antibody and anti-CFP antibody (lower panel). d) ASC was immunoprecipitated from THP-1 cell lysates primed with Sendai virus, whereas beads without anti-ASC antibody served as a negative control. The presence of ASC, PYHIN-2 and AIM2 was assessed by immunoblot analysis in the cell lysate and the ASC immunoprecipitation. The band above the AIM2 band in the ASC immunoprecipitation corresponds to the heavy chain of the anti-ASC antibody that is also detected by the secondary antibody. E) 293T cells were transfected with a multimerized NF-″B luciferase reporter construct together with fixed amounts of constructs as in (a) alone or together with increasing amounts of ASC. Cellular NF-″B activation was quantified in cell lysates 24 hours after transfection. Data of one representative experiment out of three (panels a, b, c and d) or two (panel e) are depicted.
To study the possibility that these PYHIN proteins associated with ASC in the cytosol, C-terminally tagged CFP PYD-domain fusions were generated. Of note, the putative nuclear localization sequences were predicted to localize to the […] of these molecules. Consistent with these predictions, all of the PYD-CFP fusion proteins were localized in the cytoplasm and formed large cytosolic aggregates in a portion of the cells (FIG. 6).

[2] = biological target: HA-tagged ASC (human, UniProt Q9ULZ3 1-195, limits assumed); test: cell-based or functional assay
Sequence of HA-tagged ASC (Q9ULZ3 whole entry): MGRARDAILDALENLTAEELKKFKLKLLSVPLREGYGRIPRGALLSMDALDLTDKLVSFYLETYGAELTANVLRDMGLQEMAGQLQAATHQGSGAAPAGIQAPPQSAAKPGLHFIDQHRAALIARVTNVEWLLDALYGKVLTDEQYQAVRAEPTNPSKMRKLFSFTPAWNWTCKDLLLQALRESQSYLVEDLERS

T1 sequence (Q9ULZ3 whole entry): as above

binding result [1] | NF-kappaB luciferase reporter activation in 293T cells [2] | Binder
no binding |  | PYHIN2-PYD (1-84) C-terminally tagged with CFP (other, human, UniProt Q16666 1-84, looked up, range 1-84; also called IFI16 PYD; not shown: C-terminal CFP from vector pEFBOS-C-term-CFP) MGKKYKNIVLLKGLEVINDYHFRMVKSLLSNDLKLNLKMREEYDKIQIADLMEEKFRGDAGLGKLIKIFEDIPTLEDLAETLKK
no binding |  | PYHIN3-PYD (1-84) C-terminally tagged with CFP (other, human, UniProt P41218 1-84, looked up, range 1-84; also called MNDA PYD; not shown: C-terminal CFP from vector pEFBOS-C-term-CFP) MVNEYKKILLLKGFELMDDYHFTSIKSLLAYDLGLTTKMQEEYNRIKITDLMEKKFQGVACLDKLIELAKDMPSLKNLVNNLRK
no binding |  | PYHIN1-PYD (1-84) C-terminally tagged with CFP (other, human, UniProt Q6K0P9 1-84, looked up, range 1-84; also called IFIX PYD; not shown: C-terminal CFP from vector pEFBOS-C-term-CFP) MANNYKKIVLLKGLEVINDYHFRIVKSLLSNDLKLNPKMKEEYDKIQIADLMEEKFPGDAGLGKLIEFFKEIPTLGDLAETLKR
 | ≤ 60 fold | Full length human AIM2 (AS 1-356) C-terminally tagged with CFP (other, UniProt O14862 1-343, looked up, not shown: large carriers) MESKYKEILLLTGLDNITDEELDRFKFFLSDEFNIATGKLHTANRIQVATLMIQNAGAVSAVMKTIRIFQKLNYMLLAKRLQEEKEKVDKQYKSVTKPKPLSQAEMSPAASAAIRNDVAKQRAAPKVSPHVKPEQKQMVAQQESIREGFQKRCLPVMVLKAKKPFTFETQEGKQEMFHATVATEKEFFFVKVFNTLLKDKFIPKRIIIIARYYRHSGFLEVNSASRVLDAESDQKVNVPLNIIRKAGETPKINTLQTQPLGTIVNGLFVVQKVTEKKKNILFDLSDNTGKMEVLGVRNEDTMKCKEGDKVRLTFFTLSKNGEKLQLTSGVHSTIKVIKAKKKT
